Read-outs that look alike come from different tables or passages of the source. One block for each molecule: values may come before it.
What was measured:
[1] = system: CC(C)=CCOP(=O)(O)OP(=O)(O)O; test: UHPLC of prenylated product, microsomes; type: biochemical, Pastinaca sativa; conditions: C6 product (demethylsuberosin), umbelliferone co-substrate, Mg2+, 28 °C
From the text: (§1) UHPLC of prenylated product, microsomes on PsPT1

O=c1ccc2ccc(O)cc2o1 = test: UHPLC of prenylated product, microsomes; type: biochemical, Pastinaca sativa; conditions: D2P8 (T/A), C6 product (demethylsuberosin), DMAPP co-substrate, Mg2+, 28 °C
From the text: as §1

AgPT1 = conditions: read-out: apparent Km, divalent cation
PsPT1 = molecular target: T1, PsPT1 (Pastinaca sativa, UniProt A0A0U1ZEE9); test: UHPLC of prenylated product, microsomes; type: biochemical; conditions: C6 product (demethylsuberosin); DMAPP co-substrate, Mg2+, 28 °C; read-out: Demethylsuberosin / (C6-position product) / Umbelliferone
T1 construct: gene PT1; full CDS (with transit peptide) in pGWB502; transient expression in Nicotiana benthamiana leaves, microsomes
From the text: as §1

Molecule: PsPT1 (Pastinaca sativa; T161A)
Km ([1]; D2P8 (T/A)): 4.4 ± 0.8 µM
Km (O=c1ccc2ccc(O)cc2o1): 47 ± 7 µM

Km (AgPT1; umbelliferone co-substrate): 10 ± 3 µM
Molecule: CC(C)=CCOP(=O)(O)OP(=O)(O)O [DMAPP]

Molecule: PsPT1 (Pastinaca sativa)
Km [1]: 5 ± 1 µM

Km (PsPT1): 2.7 ± 0.6 µM
Km (AgPT1; DMAPP co-substrate): 40 ± 20 µM
Molecule: O=c1ccc2ccc(O)cc2o1 [umbelliferone]
